Assay results from paper PMC6381284.

Target: KSHV glycoprotein H/glycoprotein L (gH/gL) (Kaposi's sarcoma-associated herpesvirus (KSHV)) (UniProt F5HAK9)
Chain of UniProt F5HAK9 (F5HAK9 whole entry, looked up): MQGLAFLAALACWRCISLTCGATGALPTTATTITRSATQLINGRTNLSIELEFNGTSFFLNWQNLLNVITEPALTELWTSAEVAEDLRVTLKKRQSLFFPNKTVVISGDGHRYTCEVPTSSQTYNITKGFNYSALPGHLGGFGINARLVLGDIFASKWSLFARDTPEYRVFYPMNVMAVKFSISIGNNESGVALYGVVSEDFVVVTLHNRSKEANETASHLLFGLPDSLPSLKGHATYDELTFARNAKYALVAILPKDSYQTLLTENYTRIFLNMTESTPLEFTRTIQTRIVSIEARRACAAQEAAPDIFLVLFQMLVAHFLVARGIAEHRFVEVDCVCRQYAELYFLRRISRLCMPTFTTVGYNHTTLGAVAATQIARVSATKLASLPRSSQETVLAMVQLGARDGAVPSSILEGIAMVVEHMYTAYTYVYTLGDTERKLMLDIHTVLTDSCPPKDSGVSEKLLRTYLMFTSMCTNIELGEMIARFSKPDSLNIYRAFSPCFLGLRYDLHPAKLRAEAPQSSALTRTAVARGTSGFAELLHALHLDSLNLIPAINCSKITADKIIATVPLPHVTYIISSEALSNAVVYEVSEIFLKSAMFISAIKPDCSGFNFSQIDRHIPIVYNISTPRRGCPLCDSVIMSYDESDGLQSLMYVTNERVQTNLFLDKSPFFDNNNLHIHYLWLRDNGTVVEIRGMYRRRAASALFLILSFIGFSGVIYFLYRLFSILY

Work on “Soluble EphA4-Fc (from UniProt P54764 20-547) (Fc fusion)” yielded a virus-free cell-cell fusion (luciferase): CHO-K1 cells with EBV gB and KSHV gH/gL overlaid with HEK293T cells overexpressing membrane EphA4, compared with cells overexpressing EphA2 (% more fusion than with EphA2) of 33.
